Laboratory results reported in the RNAGym collection of RNA variant scans (doi:10.7554/elife.90254).

B1: LINE1-mini (parent)
chain: GGCAGAGCUCAACACAGCGUGGCAAAGUGGCUGUGGCUAGACUGCC

Variants of: B1
Test: self-cleavage, relative activity (ratio to wild type); higher = more cleavage; in vitro, sequencing; the parent is a self-cleaving ribozyme

Variant	self-cleavage
GGCAGAGCUCAACACAGCGUGCCAAAGUGGCUGUGACUAGACUGCC [G22C G36A]	0.05
GGCAGAGCUCAACGCAGCGUGGCAAAGUGGCUGUGGCGAGACUGCC [A14G U38G]	0.01
GGCAGAGCUCAACACAGCGUGGCAAAGUGGCUGUGACUAGACCGCC [G36A U43C]	0.31
GGCAGAGCUCAACACAGCGUGGCAAACUAGCUGUGGCUAGACUGCC [G27C G29A]	0.39
GGCAGAGCUCAACACAGCGUGGGAUAGUGGCUGUGGCUAGACUGCC [C23G A25U]	0.72
GCCAGAGCUCAACACAGCGUGGCAAAGUGGCUGUGGAUAGACUGCC [G2C C37A]	0.06
GGCAGAGCACAACACAGCGUGGCAAAGUGGCUGUGGCUAGACUGCU [U9A C46U]	0.17
GGCAGACCUCAACACACCGUGGCAAAGUGGCUGUGGCUAGACUGCC [G7C G17C]	0.1
AGCAGAGCUCAACAAAGCGUGGCAAAGUGGCUGUGGCUAGACUGCC [G1A C15A]	0.06
GGCAGAGCUCAAGACAGCGUGGCAAAGUGGCUGUGGCUAGACUGCG [C13G C46G]	0.19
CGCAGAGCUCAACACAGCGUGGCAAAGUUGCUGUGGCUAGACUGCC [G1C G29U]	0.14
GGCAGAGCUCAACAUAGCGUGGCAAAGUGGCUGUGGCUCGACUGCC [C15U A39C]	0.18
GGCAGAGCUCAACACAGCGUGGCAAAUUGGCUGUGGCUAGACUACC [G27U G44A]	0.43
GGCAGAGUUCAACACAGCGUGGCAAAGUGGCUGUGGCUAGACUGUC [C8U C45U]	0.32
GGCAGAGCUCAACACAGCGUGGCAAAGUGGCUGUGGCUAGACUAUC [G44A C45U]	0.1
GGCAGAGCUAAAAACAGCGUGGCAAAGUGGCUGUGGCUAGACUGCC [C10A C13A]	0.03
GGCAGAGCUCAACACAGCGUGGCAAAGUGGCUGUGGCUAGUCUACC [A41U G44A]	0.31
GGCAGAGCUCAACACAACGAGGCAAAGUGGCUGUGGCUAGACUGCC [G17A U20A]	0.1
GCCAGAGCUCAACACAGCGUGGCAAAGUGGCUGCGGCUAGACUGCC [G2C U34C]	0.06

Variant	self-cleavage
GGCAGAGCUCAACACAGCGUGGCAUAGUGGCUGUGUCUAGACUGCC [A25U G36U]	0.07
GGCAGAGCUCAACACAGCGUGGCAAAGUGGCGGUAGCUAGACUGCC [U32G G35A]	0.09
GGAAGAGCUCAACACAGCGUGGCAAAGUGGCUGUGGCUAGGCUGCC [C3A A41G]	0.22
GGCAGAGCUCAACACAGCGUGGUAAAUUGGCUGUGGCUAGACUGCC [C23U G27U]	0.87
GGCAGAGCUCAACACAGCGUGGCAAACUGCCUGUGGCUAGACUGCC [G27C G30C]	0.84
GGCAGAGCUCAACACAGCGUGGCCAAGGGGCUGUGGCUAGACUGCC [A24C U28G]	0.35
GGCAGAGCUCAACACCGCGUGGCAAAGUGACUGUGGCUAGACUGCC [A16C G30A]	0.14
GGCAGAGCUCAUCACAGCGUGGCAGAGUGGCUGUGGCUAGACUGCC [A12U A25G]	0.4
GGCCGAGCUCAACACAGCGUGCCAAAGUGGCUGUGGCUAGACUGCC [A4C G22C]	0.08
GGCAGAACUCAACACACCGUGGCAAAGUGGCUGUGGCUAGACUGCC [G7A G17C]	0.18
GGCAGAACUCAACACAGCGUGGCAAAGUGGCUGUGGCUAGGCUGCC [G7A A41G]	0.12
GGCAGAGCACAACACAGCGUGGCAAAGUGGCUGUGGCUAGACUCCC [U9A G44C]	0.07
GGCAGAGCGCAACUCAGCGUGGCAAAGUGGCUGUGGCUAGACUGCC [U9G A14U]	0.06
GGCAGAGCUCAACACAGCGUGGCAAAGUGGUUGUGGCUAGACUGCG [C31U C46G]	0.08
GGCAGAGCUCAACACACCGUGGCAAAGUGGCUGUGGCUAGAAUGCC [G17C C42A]	0.05
GGCAAAGCUCAAUACAGCGUGGCAAAGUGGCUGUGGCUAGACUGCC [G5A C13U]	0.15
GGCAGAGCUCAACACAGCGUGGGAAAGUGGCUGUGGCUAGAGUGCC [C23G C42G]	0.03
GGCAGAGCUCAACACAGCGUGACAAACUGGCUGUGGCUAGACUGCC [G22A G27C]	0.9
GGCAGAGCUCAACACAGCGUGGCAAAGUGGCUGUGCCUAGUCUGCC [G36C A41U]	0.14

Variant	self-cleavage
GGCAGAGCUCAACACAGCGUGGCAAAGUGACUGUGGCAAGACUGCC [G30A U38A]	0.72
GGCAGGGCUCAACACAGCUUGGCAAAGUGGCUGUGGCUAGACUGCC [A6G G19U]	0.15
AGCAGAGCUCAACACAGCGUGGCAAAGUAGCUGUGGCUAGACUGCC [G1A G29A]	0.63
GGCAGAGCUCAACACAGCGUGGCAAAGUGUCUUUGGCUAGACUGCC [G30U G33U]	0.08
GGUAGAGCUCAACACAGCGUGGCAAAGUGGCUCUGGCUAGACUGCC [C3U G33C]	0.07
GGCAGAGCUCAAAACAGCGUGGCAAAGUGGCUGUGGCUAGACUGAC [C13A C45A]	0.08
GGCAGAGCUCAACACAGCGUGGCAAAGUGGAUGUGGCUAGACUACC [C31A G44A]	0.06
GGCAGAGCUCAACACAGCGUGCCAAAGUGGCUGUGGCUAUACUGCC [G22C G40U]	0.14
GGCAGAGCUCAUCACAGCGUGGGAAAGUGGCUGUGGCUAGACUGCC [A12U C23G]	0.26
GUCAGAACUCAACACAGCGUGGCAAAGUGGCUGUGGCUAGACUGCC [G2U G7A]	0.07
GGCAGAGCUCAGCACAGCGUGGGAAAGUGGCUGUGGCUAGACUGCC [A12G C23G]	0.05
GGCAGAGCUCAACACAGCGUGGCAAAGUGGCUGUCGCUCGACUGCC [G35C A39C]	0.13
GGCAGAGCUCAACACAGCGUCGCAAAGUGGUUGUGGCUAGACUGCC [G21C C31U]	0.3
GGCAGAGCUCAACAUUGCGUGGCAAAGUGGCUGUGGCUAGACUGCC [C15U A16U]	0.1
GGAAGAGCUCAACACAUCGUGGCAAAGUGGCUGUGGCUAGACUGCC [C3A G17U]	0.2
GGCAGAGGUCAACGCAGCGUGGCAAAGUGGCUGUGGCUAGACUGCC [C8G A14G]	0.08
GGCAGAGCUCAACACAGCGUGGCAAAAUGACUGUGGCUAGACUGCC [G27A G30A]	2.28
GGCAGAGCUCAACACAGCGUGGCAAAGAGGCCGUGGCUAGACUGCC [U28A U32C]	0.18
